Experimental data from paper doi:10.1101/2022.06.15.496202.

Biological target: Cas7c (D. vulgaris)
Experiment: cryo-EM structure

stoichiometry N: 7
Substance: Cas7c (natural protein)
